We go through 1 substance from patent publication US20190002511.

For series [1], the system named is avathrin (Amblyomma variegatum thrombin inhibitor).
avathrin (Amblyomma variegatum thrombin inhibitor), sequence (chain, as listed by the source): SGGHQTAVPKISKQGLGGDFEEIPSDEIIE

ultravariegin, sequence (chain, as listed by the source): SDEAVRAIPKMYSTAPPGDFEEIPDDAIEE
avathrin K10R, sequence (chain, as listed by the source K10R): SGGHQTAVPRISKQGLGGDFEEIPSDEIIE
β-avathrin, sequence (chain, as listed by the source): as the sequence (chain, as listed by the source K10R) above, with R10X counted along it

In the case of human α-thrombin (recombinant), the “time to complete cleavage by thrombin” value in the series on ultravariegin is “At 18 h, ultravariegin was completely cleaved”; in the series on avathrin K10R, “resulting in complete cleavage within 3 h”. Further, in the series on β-avathrin, the cleavage by thrombin result is “it was not cleaved by thrombin for up to 72 h”. Moreover, the “time to complete cleavage by thrombin (30:1 peptide to enzyme)” value in series [1] is “avathrin was completely cleaved at ~10 h”.
